Reference: the RNAGym collection of RNA variant scans (doi:10.1021/acssynbio.7b00057)

B1: Pistol ribozyme (parent)
chain: GGGUCGUUGUUCCAUAAUCGCGUGGAUAUGGCACGCAAGUUUCUACCGGGCACCGUAAAUGUCCGACUGGAGCCGUUCGGGCGGCUAUAAACAGACCUCAGGCCCGAAGCGUGGCGGCACCUGCCGCCGGUGGUAAAAAAGAUCGGAAGAGCACACGUCU

Variants of: B1
Assay: aptazyme ON/OFF ratio, guanine; higher = stronger switching; co-transcriptional cleavage with and without guanine

Row | Variant | aptazyme ON/OFF ratio
1 | U7A G9U U11C C13U | 1.12
2 | U7A G9U U11C C13G | 1.08
3 | U7A G9U U11C C13A | 1.15
4 | U7A G9U U10C U11A C12A C13A | 1.2
5 | U7A G9U U10C U11A C12A C13G | 1.15
6 | U7A G9U U10C U11A C12A C13U | 1.21
7 | U7A G9U U10G C12U | 1.43
8 | U7A G9U U10G C12G | 1.13
9 | U7A G9U U10G C12A | 1.15
10 | U7A G9U U10A U11C C12A | 1.26
11 | U7A G9U U10A U11C C12G | 1.25
12 | U7A G9U U10A U11C C12U | 1.08
13 | U7A G9U U11G C12G | 1.15
14 | U7A G9U U11G C12A | 1.11
15 | U7A G9U U10G C12U C13U | 1.87
16 | U7A G9U U10G C12U C13A | 1.32
17 | U7A G9U U10G C12U C13G | 1.23
18 | U7A G9C U10G U11G C13A | 1.13
19 | U7A G9C U10G U11G C13G | 1.17
20 | U7A G9C U10G U11G C13U | 1.1
21 | U7A G9U U10A U11A C13A | 1.17
22 | U7A G9U U10A U11A C13G | 1.1
23 | U7A G9U U10A U11A C13U | 1.16
24 | U7A G9U U10A U11C C12G C13G | 1.06

Row | Variant | aptazyme ON/OFF ratio
25 | U7A G9U U10A U11C C12G C13A | 1.09
26 | U7A G9U U10A U11C C12G C13U | 1.13
27 | U7A G9C U10G U11C C13U | 1.03
28 | U7A G9C U10G U11C C13G | 1.05
29 | U7A G9C U10G U11C C13A | 1.06
30 | U7A G9U U10A C12U C13A | 1.29
31 | U7A G9U U10A C12U C13G | 1.13
32 | U7A G9U U10A C12U C13U | 1.17
33 | U7A G9U U10C U11A C12A | 1.15
34 | U7A G9U U10C U11A C12G | 1.23
35 | U7A G9U U10C U11A C12U | 1.23
36 | U7A G9U U10C C12G C13U | 1.4
37 | U7A G9U U10C C12G C13G | 1.29
38 | U7A G9U U10C C12G C13A | 1.07
39 | U7A G9U U10C U11G C12U | 1.34
40 | U7A G9U U10C U11G C12G | 1.09
41 | U7A G9U U10C U11G C12A | 1.02
42 | U7A G9C U10G U11C C12G C13A | 1.11
43 | U7A G9C U10G U11C C12G C13U | 1.17
44 | U7A G9C U10G U11C C12G C13G | 1.21
45 | U7A G9U U10A U11G C12G C13A | 1.16
46 | U7A G9U U10A U11G C12G C13U | 1.18
47 | U7A G9U U10A U11G C12G C13G | 1.2
48 | U7A G9C U10G U11C C12U C13U | 1.09

Row | Variant | aptazyme ON/OFF ratio
49 | U7A G9C U10G U11C C12U C13A | 1.05
50 | U7A G9C U10G U11C C12U C13G | 1.07
51 | U7A G9U U10G U11G C12G C13G | 1.4
52 | U7A G9U U10G U11G C12G C13A | 1.23
53 | U7A G9U U10G U11G C12G C13U | 1.45
54 | U7A G9U U10G U11A C12A C13G | 1.17
55 | U7A G9U U10G U11A C12A C13U | 1.18
56 | U7A G9U U10G U11A C12A C13A | 1.14
57 | U7A G9U U10A U11G C12U C13A | 1.16
58 | U7A G9U U10A U11G C12U C13U | 1.22
59 | U7A G9U U10A U11G C12U C13G | 1.13
60 | U7A G9U U10C U11C C12A | 1.09
61 | U7A G9U U10C U11C C12U | 1.03
62 | U7A G9U U10C U11C C12G | 1.05
63 | U7A G9C U10G U11C C12A C13A | 1.05
64 | U7A G9C U10G U11C C12A C13G | 1.05
65 | U7A G9C U10G U11C C12A C13U | 1.06
66 | U7A G9U U10G U11G | 1.1
67 | U7A G9U U10G U11C | 1.06
68 | U7A G9U U10G U11A | 1.08
69 | U7A G9C U11A C13A | 1.02
70 | U7A G9C U11A C13G | 1.08
71 | U7A G9C U11A C13U | 1.07
72 | U7A G9C U11A C12U C13A | 1.1

Row | Variant | aptazyme ON/OFF ratio
73 | U7A G9C U11A C12U C13G | 1.07
74 | U7A G9C U11A C12U C13U | 1.16
75 | U7A G9U U10A C12G C13U | 1.11
76 | U7A G9U U10A C12G C13G | 1.26
77 | U7A G9U U10A C12G C13A | 1.25
78 | U7A G9C U10G U11G C12G | 1.16
79 | U7A G9C U10G U11G C12U | 1.14
80 | U7A G9C U10G U11G C12A | 1.11
81 | U7A G9U U10G U11C C13A | 1.1
82 | U7A G9U U10G U11C C13G | 1.08
83 | U7A G9U U10G U11C C13U | 1.05
84 | U7A G9U U10A U11G C12A C13U | 1.1
85 | U7A G9U U10A U11G C12A C13A | 1.08
86 | U7A G9U U10A U11G C12A C13G | 1.19
87 | U7A G9U U10A U11A C12A C13A | 1.1
88 | U7A G9U U10A U11A C12A C13G | 1.14
89 | U7A G9U U10A U11A C12A C13U | 1.3
90 | U7A G9C U11G C12G C13G | 1.14
91 | U7A G9C U11G C12G C13A | 1.16
92 | U7A G9C U11G C12G C13U | 1.12
93 | U7A G9U C13U | 1.35
94 | U7A G9U C13G | 1.05
95 | U7A G9U C13A | 1.29
96 | U7A G9U U11A C12G | 1.35

Row | Variant | aptazyme ON/OFF ratio
97 | U7A G9U U11A C12A | 1.28
98 | U7A G9U U11A C12U | 1.34
99 | U7A G9C U11G C12A C13A | 1.1
100 | U7A G9C U11G C12A C13G | 1.14
101 | U7A G9C U11G C12A C13U | 1.29
102 | U7A G9U U10C C12G | 1.29
103 | U7A G9U U10C C12A | 1.14
104 | U7A G9U U10C C12U | 1.22
105 | U7A G9U U10A U11A C12U C13A | 1.3
106 | U7A G9U U10A U11A C12U C13G | 1.15
107 | U7A G9U U10A U11A C12U C13U | 1.06
108 | U7A G9U U10A U11G C12G | 1.18
109 | U7A G9U U10A U11G C12U | 1.39
110 | U7A G9U U10A U11G C12A | 1.07
111 | U7A G9U U10G U11G C12A C13U | 1.21
112 | U7A G9U U10G U11G C12A C13A | 1.11
113 | U7A G9U U10G U11G C12A C13G | 1.12
114 | U7A G9U C12G | 1.39
115 | U7A G9U C12A | 0.896
116 | U7A G9U C12U | 1.34
117 | U7A G9U U10A U11C C13G | 1.07
118 | U7A G9U U10A U11C C13A | 1.09
119 | U7A G9U U10A U11C C13U | 1.02
120 | U7A G9U U10C U11G | 1.32

Row | Variant | aptazyme ON/OFF ratio
121 | U7A G9U U10C U11C | 1.07
122 | U7A G9U U10C U11A | 1.31
123 | U7A G9U U10C U11A C13U | 1.1
124 | U7A G9U U10C U11A C13G | 1.1
125 | U7A G9U U10C U11A C13A | 1.14
126 | U7A G9U U10C U11G C12U C13A | 1.15
127 | U7A G9U U10C U11G C12U C13U | 1.27
128 | U7A G9U U10C U11G C12U C13G | 1.12
129 | U7A G9C U10G U11G C12U C13G | 1.12
130 | U7A G9C U10G U11G C12U C13U | 1.16
131 | U7A G9C U10G U11G C12U C13A | 1.09
132 | U7A G9C U10G U11A C13U | 1.05
133 | U7A G9C U10G U11A C13G | 1.06
134 | U7A G9C U10G U11A C13A | 1.02
135 | U7A G9U U10C C12A C13U | 1.16
136 | U7A G9U U10C C12A C13G | 1.14
137 | U7A G9U U10C C12A C13A | 1.21
138 | U7A G9U U10C U11C C12A C13U | 1.07
139 | U7A G9U U10C U11C C12A C13G | 1.06
140 | U7A G9U U10C U11C C12A C13A | 1.03
141 | U7A G9U U11C C12A C13G | 1.16
142 | U7A G9U U11C C12A C13A | 1.24
143 | U7A G9U U11C C12A C13U | 1.24
144 | U7A G9U U10A U11C C12A C13A | 1.22

Row | Variant | aptazyme ON/OFF ratio
145 | U7A G9U U10A U11C C12A C13G | 1.24
146 | U7A G9U U10A U11C C12A C13U | 1.17
147 | U7A G9U U10G U11C C12U C13G | 1.19
148 | U7A G9U U10G U11C C12U C13A | 1.29
149 | U7A G9U U10G U11C C12U C13U | 1.22
150 | U7A G9C U11C C12A C13U | 1.08
151 | U7A G9C U11C C12A C13G | 1.05
152 | U7A G9C U11C C12A C13A | 1.06
153 | U7A G9C U10G U11A C12U C13G | 1.07
154 | U7A G9C U10G U11A C12U C13A | 1.06
155 | U7A G9C U10G U11A C12U C13U | 1.05
156 | U7A G9C U10G U11G C12A C13G | 1.06
157 | U7A G9C U10G U11G C12A C13A | 1.11
158 | U7A G9C U10G U11G C12A C13U | 1.08
159 | U7A G9U U10G U11G C12U C13G | 1.15
160 | U7A G9U U10G U11G C12U C13A | 1.26
161 | U7A G9U U10G U11G C12U C13U | 1.51
162 | U7A G9C U11C C12G C13G | 1.09
163 | U7A G9C U11C C12G C13A | 1.07
164 | U7A G9C U11C C12G C13U | 1.09
165 | U7A G9C U10G U11C C12U | 1.04
166 | U7A G9C U10G U11C C12G | 1.08
167 | U7A G9C U10G U11C C12A | 1.08
